Experimental data from paper PMC10602967, “Modulatory role of RNA helicases in MBNL-dependent alternative splicing regulation”.

Key:
[1] = biological target: T1, rDDX5 (UniProt P17844 1-614); experiment: EMSA; slightly preferred over RNA-ctrl; no defined complex band; Kd only in figure; EMSA: 15 nM RNA, 50 mM NaCl, 50 mM KCl, 50 mM Tris-HCl, 1 mM MgCl2 (pH not stated), 37 C 15 min, 10 ul, 6% native PA gel; Kd by one-site fit with Bmax = 100; conditions: protein: commercial; label: 5'-biotin; 3'-Cyanine 5; single-stranded
T1 sequence (P17844 whole entry): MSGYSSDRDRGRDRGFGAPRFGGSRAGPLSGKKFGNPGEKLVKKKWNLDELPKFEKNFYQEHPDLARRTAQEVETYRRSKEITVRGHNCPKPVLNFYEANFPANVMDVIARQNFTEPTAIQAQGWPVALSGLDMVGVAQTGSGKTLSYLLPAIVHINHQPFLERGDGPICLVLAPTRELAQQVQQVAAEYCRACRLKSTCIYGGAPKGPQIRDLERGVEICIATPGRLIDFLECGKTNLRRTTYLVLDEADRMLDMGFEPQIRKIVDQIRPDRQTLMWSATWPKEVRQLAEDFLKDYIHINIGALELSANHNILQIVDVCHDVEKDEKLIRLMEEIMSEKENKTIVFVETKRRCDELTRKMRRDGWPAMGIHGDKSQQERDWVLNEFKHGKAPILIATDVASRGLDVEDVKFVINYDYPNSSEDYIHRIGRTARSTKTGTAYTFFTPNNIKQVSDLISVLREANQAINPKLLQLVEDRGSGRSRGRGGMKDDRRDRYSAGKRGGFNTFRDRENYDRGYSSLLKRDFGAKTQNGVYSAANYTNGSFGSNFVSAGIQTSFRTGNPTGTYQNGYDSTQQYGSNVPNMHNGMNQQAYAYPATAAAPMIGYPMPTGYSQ

[2] = biological target: T1, rDDX5; experiment: EMSA; slightly lower preference than ss(UGCU)4; no defined complex band; Kd only in figure; EMSA: 15 nM RNA, 50 mM NaCl, 50 mM KCl, 50 mM Tris-HCl, 1 mM MgCl2 (pH not stated), 37 C 15 min, 10 ul, 6% native PA gel; Kd by one-site fit with Bmax = 100; conditions: protein: commercial; label: 5'-biotin; 3'-Cyanine 5; single-stranded

Binder | binding result [1] | binding result [2]
UUUUUUUUGCUUGCUUGCUUGCUUUUUUUU (ssRNA) [RNA-ss(UGCU)4] | binds | –
UUUUUUUUGUCUGGUCCCUCGUUUUUUUU (ssRNA) [RNA-ctrl] | – | binds
